B1: pCART203 (enzyme)
chain: MDDYQRNATEAYAKEVPHQITSVWTKGVTPPEQFTQGEDVIHAPYLAHQGWYDITKAFDGKDNLLCGAATAGNMLHWWFDQNKTEIEAYLSKHPEKQKIIFNNQELFDLKAAIDTKDSQTNSQLFNYFRDKAFPNLSARQLGVMPDLVLDMFINGYYLNVFKTQSTDVNRPYQDKDKRGGIFDAVFTRGDQTTLLTARHDLKNKGLNDISTIIKQELTEGRALALSHTYANVSISHVINLWGADFNAEGNLEAIYVTDSDANASIGMKKYFVGINAHGHVAISAKKIEGENIGAQVLGLFTLSSGKDIWQKLSGGGHHHHHH
B2: pCART201 (enzyme)
chain: MSVWTKGVTPLTPEQFRYNNEDVIHAPYLAHQGWYDITKAFDGKDNLLCGAATAGNMLHWWFDQNKTEIEAYLSKHPEKQKIIFNNQELFDLKAAIDTKDSQTNSQLFNYFRDKAFPNLSARQLGVMPDLVLDMFINGYYLNVFKTQSTDVNRPYQDKDKRGGIFDAVFTRGDQTTLLTARHDLKNKGLNDISTIIKQELTEGRALALSHTYANVSISHVINLWGADFNAEGNLEAIYVTDSDANASIGMKKYFVGINAHGHVAISAKKIEGENIGAQVLGLFTLSSGKDIWQKLSGGGHHHHHH
B3: pCART197 (enzyme)
chain: MDDYQRNATEAYAKEVPHQITSVWTKGVTPLTPEQFRYNNEDVIHAPYLANQGWYDITKAFDGKDNLLCGAATAGNMLHWWFDQNKTEIEAYLSKHPEKQKIIFRNQELFDLKEAIRTKDSQTNSQLFEYFRDKAFPYLSARQLGVMPDLVLDMFINGYYLNVFKTQSTDVKRPYQDKDKRGGIFDAVFTRGNQTTLLTARHDLKNKGLNDISTIIKEELTKGRALALSHTYANVSISHVINLWGADFNAEGNLEAIYVTDSDANASIGMKKYFVGINKHGHVAISAKKIEGENIGAQVLGLFTLSSGKDIWQKLNGGGHHHHHH

How the values were obtained:
[1] = target: rabbit anti-BSA (ACRIS, #R1048P); test: cell-based or functional assay
denosumab (XGEVA) = test: cell-based or functional assay

Row | Binder | pCART124 ratio (fold change in potency relative to IdeS), ELISA-based potency assay [1] | IgG2 (denosumab) cleavage, SDS-PAGE titration: fold efficacy over IdeZ (denosumab (XGEVA))
1 | B1 | ~3.5 fold over IdeS | ~3 fold vs pCART144
2 | B2 | 8 fold over pCART124 | –
3 | B3 | 8 fold over pCART124 | –

Reference: US20230302100A1 (published 2023)
